Source: patent US20230124851A1 (INHIBRX LNC, published 2023)
Residue numbers refer to the chain shown, from its start. Blank lines part the entries; values can stand above or below the binder they belong to.

Experiments:
[1] = biological target: T1, CD3 on the surface of human T cells (human, UniProt P07766 23-207); assay: flow cytometry on primary human T cells, anti-human Fc secondary
T1 construct: whole, on cells; Part of the CD3/TCR complex on cells; also called CD3 epsilon
Description: (§1) Binding of exemplary multispecific constructs containing an antigen-binding domain directed against B7H3 were assessed for binding to B7H3 positive A375 tumor cells or primary T-cells. The constructs were generated containing antigen-binding domain(s) that were either sdAbs or a FABs, and that were positioned either only N-terminal to the Fc or both N-terminal to the Fc and C-terminal to the anti-CD3 binding domain (see FIGS. 30A and 30C and Table E5). Among the various formats of constructs tested included: sdAb-Fc-dsFV-sdAb (cx3072, cx5952) sdAb-Fc-FV (cx6079), sdAb-Fc-dsFV (cs6080, cx6081), MAB-FV (cx5067) and MAB-dsFV (cx6083, cx6084), where the FV represents the anti-CD3 binding domain composed of VH and VL domain pairs and “ds” notes disulfide stabilized via an engineered interdomain disulfide bond.
(§2) Binding was assessed as described above via flow cytometry using a fluorophore-conjugated anti-human Fc secondary antibody. cx3072 bound to A375 cells with high affinity (FIG. 31A) but not to isolated T-cells (FIG. 31B). […] The B7H3 -targeting sdAb containing constructs (cx5952, cx6079, cx6080, and cx6081) bound to B7H3 positive cells with similar affinities (depicted in FIG. 31E), with cx5952 displaying higher maximal binding. cx6079, cx6080 and cx6081 contain two identical B7H3-targeting sdAbs, whereas cx5952, and cx3072 contain two distinct B7H3-targeting sdAb that bind different epitopes. The MAB-FV, cx5067, contains two identical B7H3-targeting FAB domains.

[2] = biological target: T2, human B7H3 (CD276) on the cell surface (human, UniProt Q5ZPR3 29-534); assay: flow cytometry on A375 cells (B7H3+), anti-human Fc secondary
T2 construct: B7H3 on A375 and other B7H3-positive or transfected cells
T2 sequence: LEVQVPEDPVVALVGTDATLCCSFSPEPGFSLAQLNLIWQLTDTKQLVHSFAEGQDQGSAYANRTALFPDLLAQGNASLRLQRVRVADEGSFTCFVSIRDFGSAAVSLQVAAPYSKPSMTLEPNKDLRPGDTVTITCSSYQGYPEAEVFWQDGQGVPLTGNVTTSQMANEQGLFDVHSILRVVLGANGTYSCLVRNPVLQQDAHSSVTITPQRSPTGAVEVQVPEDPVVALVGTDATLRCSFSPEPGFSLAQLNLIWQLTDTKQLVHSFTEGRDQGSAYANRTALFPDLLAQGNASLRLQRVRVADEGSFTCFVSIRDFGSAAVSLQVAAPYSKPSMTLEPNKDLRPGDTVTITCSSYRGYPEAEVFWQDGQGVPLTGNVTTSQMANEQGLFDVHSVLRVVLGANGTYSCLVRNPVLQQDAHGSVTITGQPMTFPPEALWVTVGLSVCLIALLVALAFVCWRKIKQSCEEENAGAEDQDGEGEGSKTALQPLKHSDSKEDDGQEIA
Description: as §1, §2

[3] = biological target: T1, CD3 on the surface of human T cells; assay: flow cytometry on primary human T cells; column head 'Affinity CD3'
Description: (§3) Binding of exemplary B7H3-targeting constrained CD3 engaging constructs set forth in Table E3 to CD3 on the surface of primary T cells or B7H3-expressing cells (A375) was assessed by flow cytometry. The T cells were primary T-cells that were negatively enriched from PBMCs isolated from healthy human donor peripheral blood leukopaks. Bound construct was detected with fluorophore-conjugated secondary antibodies specific for the human Fc (anti-human IgG APC secondary antibody) and binding was measured by flow cytometry. Cells incubated with secondary antibody only served as negative controls. Binding was compared to Dual-affinity Re-targeting Antibody (DART)-monomeric Fc format targeting B7H3 and CD3 (DART-Fc B7H3xCD3; see e.g. WO2017030926A1).
(§4) Table E4 summarizes the affinity of exemplary molecules for B7H3 or CD3, as determined from flow cytometry, in these studies.

[4] = biological target: T2, human B7H3 (CD276) on the cell surface; assay: flow cytometry titration on A375 cells (B7H3+); column head 'Affinity B7H3' (apparent)
Description: as §3, §4

T1 sequence (P07766 23-207): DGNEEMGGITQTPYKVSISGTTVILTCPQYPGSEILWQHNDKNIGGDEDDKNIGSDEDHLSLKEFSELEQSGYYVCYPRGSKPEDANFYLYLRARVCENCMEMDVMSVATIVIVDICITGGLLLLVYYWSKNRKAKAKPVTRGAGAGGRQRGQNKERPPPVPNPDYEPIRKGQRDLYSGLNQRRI

binding result [1]: no binding | binding result [2]: binds
B3: cx6080 (bispecific antibody)
chain 1: EVQLVESGGGEVQPGGSLRLSCAASGFSFSSNVMMWVRQAPGKGLEWVSTIYSSGTGTFYAESVKGRFTISRDNAKNTLYLQMSSLRPEDTAVYYCATSGPVRGWGPRSQGTLVTVKPPGGGGDKTHTCPPCPAPPVAGPSVFLFPPKPKDTLMISRTPEVTCVVVDVKHEDPEVKFNWYVDGVEVHNAKTKPREEEYNSTYRVVSVLTVLHQDWLNGKEYKCKVSNKALPAPIEKTISKAKGQPREPQVYTLPPSREEMTKNQVSLTCDVSGFYPSDIAVEWESDGQPENNYKTTPPVLDSDGSFFLYSKLTVDKSRWEQGDVFSCSVMHEALHNHYTQKSLSLSPGKGGGGSGGGGSGGGGSEVQLVESGGGLVQPGGSLRLSCAASGFTFSTYAMNWVRQAPGKCLEWVGRIRSKYNNYATYYADSVKGRFTISRDDSKNTLYLQMNSLRAEDTAVYYCVRHGNFGDSYVSWFAYWGQGTLVTVSS
chain 2: EVQLVESGGGEVQPGGSLRLSCAASGFSFSSNVMMWVRQAPGKGLEWVSTIYSSGTGTFYAESVKGRFTISRDNAKNTLYLQMSSLRPEDTAVYYCATSGPVRGWGPRSQGTLVTVKPPGGGGDKTHTCPPCPAPPVAGPSVFLFPPKPKDTLMISRTPEVTCVVVDVKHEDPEVKFNWYVDGVEVHNAKTKPREEQYNSTYRVVSVLTVLHQDWLNGKEYKCKVSNKALPAPIEKTISKAKGQPREPQVYTLPPSREQMTKNQVKLTCLVKGFYPSDIAVEWESNGQPENNYKTTPPVLDSDGSFFLYSKLTVDKSRWQQGNVFSCSVMHEALHNHYTQKSLSLSPGKGGGGSGGGGSGGGGSQAVVTQEPSLTVSPGGTVTLTCGSSTGAVTTSNYANWVQQKPGKSPRGLIGGTNKRAPGVPARFSGSLLGGKAALTISGAQPEDEADYYCALWYSNHWVFGCGTKLTVL
notes: also called cs6080; sdAb-Fc-dsFV

binding result [1]: no binding | binding result [2]: binds
B4: cx5952 (bispecific antibody)
chain 1: EVQLVESGGGEVQPGGSLRLSCAASGFSFSSNVMMWVRQAPGKGLEWVSTIYSSGTGTFYAESVKGRFTISRDNAKNTLYLQMSSLRPEDTAVYYCATSGPVRGWGPRSQGTLVTVKPPGGGGDKTHTCPPCPAPGGPSVFLFPPKPKDTLMISRTPEVTCVVVDVSHEDPEVKFNWYVDGVEVHNAKTKPREEQYNSTYRVVSVLTVLHQDWLNGKEYKCKVSNKALPAPIEKTISKAKGQPREPQVYTLPPCRDELTKNQVSLWCLVKGFYPSDIAVEWESNGQPENNYKTTPPVLDSDGSFFLYSKLTVDKSRWQQGNVFSCSVMHEALHNHYTQKSLSLSPGGGGGGSGGGGGSGGGGGSEVQLVESGGGLVQPGGSLRLSCAASGFTFNTYAMNWVRQAPGKCLEWVARIRSKYNNYATYYADSVKGRFTISRDDAKNTLYLQMSSLRAEDTAVYYCVRHGNFGNSYVSWFAYWGQGTLVTVKPGGGGEVQLVESGGGEVQPGGSLRLSCAASGFTFSSYHMSWFRQAPGKQRELVATSHHGGTTNYAGSVKGRFTISRDNAKNTVYLQMNTLRAEDTAVYYCKADHGYQGRGYWGQGTLVTVKP
chain 2: DKTHTCPPCPAPGGPSVFLFPPKPKDTLMISRTPEVTCVVVDVSHEDPEVKFNWYVDGVEVHNAKTKPREEQYNSTYRVVSVLTVLHQDWLNGKEYKCKVSNKALPAPIEKTISKAKGQPREPQVCTLPPSRDELTKNQVSLSCAVKGFYPSDIAVEWESNGQPENNYKTTPPVLDSDGSFFLVSKLTVDKSRWQQGNVFSCSVMHEALHNRYTQKSLSLSPGGGGGGSGGGGGSGGGGGSQAVVTQEPSLTVSPGGTVTLTCGSSTGAVTTSNYANWVQQKPGQAFRGLIGGTNKRAPGVPARFSGSLLGGKAALTISGAQPEDEADYYCALWYSNHWVFGCGTKLEIK
notes: also called sdAb-Fc-dsFV-sdAb

Continued, binder first:

B1: cx6079 (bispecific antibody)
chain 1: B3 chain 1 with C408G
chain 2: B3 chain 2 with C466G
notes: also called sdAb-Fc-FV
binding result [1]: no binding | binding result [2]: binds

B2: cx6081 (bispecific antibody)
chain 1: B3 chain 1 with S394N, G413A, S441A, N450S, D470N, S488K, S489P
chain 2: B3 chain 2 with K408Q, S409A, P410F, T471E, V472I, L473K
notes: also called sdAb-Fc-dsFV
binding result [1]: no binding | binding result [2]: binds

B5: cx3855 (bispecific antibody)
chain 1: EVQLVESGGGEVQPGGSLRLSCAASGSTFSSYHMSWFRQAPGKQREPVATSHHGGTTNYAGSVKGRFTISRDNAKNTVYLQMNTLRAEDTAVYYCKADHGYQGRGYWGQGTLVTVKPDKTHTCPPCPAPGGPSVFLFPPKPKDTLMISRTPEVTCVVVDVSHEDPEVKFNWYVDGVEVHNAKTKPREEQYNSTYRVVSVLTVLHQDWLNGKEYKCKVSNKALPAPIEKTISKAKGQPREPQVYTLPPCRDELTKNQVSLWCLVKGFYPSDIAVEWESNGQPENNYKTTPPVLDSDGSFFLYSKLTVDKSRWQQGNVFSCSVMHEALHNHYTQKSLSLSPTGGSGGGGIEPDIGGSGGSEVQLVESGGGLVQPGGSLRLSCAASGFTFNTYAMNWVRQAPGKCLEWVARIRSKYNNYATYYADSVKGRFTISRDDAKNTLYLQMSSLRAEDTAVYYCVRHGNFGNSYVSWFAYWGQGTLVTVKPEVQLVESGGGEVQPGGSLRLSCAASGSTFSSYHMSWFRQAPGKQREPVATSHHGGTTNYAGSVKGRFTISRDNAKNTVYLQMNTLRAEDTAVYYCKADHGYQGRGYWGQGTLVTVKP
chain 2: DKTHTCPPCPAPGGPSVFLFPPKPKDTLMISRTPEVTCVVVDVSHEDPEVKFNWYVDGVEVHNAKTKPREEQYNSTYRVVSVLTVLHQDWLNGKEYKCKVSNKALPAPIEKTISKAKGQPREPQVCTLPPSRDELTKNQVSLSCAVKGFYPSDIAVEWESNGQPENNYKTTPPVLDSDGSFFLVSKLTVDKSRWQQGNVFSCSVMHEALHNRYTQKSLSLSPTGGSGGGGIEPDIGGSGGSQAVVTQEPSLTVSPGGTVTLTCGSSTGAVTTSNYANWVQQKPGQAFRGLIGGTNKRAPGVPARFSGSLLGGKAALTISGAQPEDEADYYCALWYSNHWVFGCGTKLTVLEVQLLESGGGEVQPGGSLRLSCAASGFSFSINAMGWYRQAPGKRREFVAAIESGRNTVYAESVKGRFTISRDNAKNTVYLQMSSLRAEDTAVYYCGLLKGNRVVSPSVAYWGQGTLVTVKP
notes: chain 2 ends in the 4-1BB sdAb RH3v5-1; Printed composition is the same as cx4904
Kd [3]: > 200 nM | Kd [4]: 0.395 nM
